Data as given in the nanobody polyreactivity screen of Harvey et al. (2022).

assay: yeast display, Sf9 membrane polyspecificity reagent, FACS + sequencing; frameworks hold sequencing errors
Procedure, shortened: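 Galactose induction of a Saccharomyces cerevisiae BJ5465 synthetic nanobody display library ran 36–48 hours. The cells were then stained for 1 hour at 4 °C with 10% biotinylated, detergent-solubilized Sf9 membrane reagent, pulled down on streptavidin microbeads and FACS-sorted into low and high (top ~1%) gates on expression and reagent-binding fluorescence. Labels for polyreactivity follow the gate of origin.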

Sequence	polyreactivity (PSR sort gate)
QVQLVESGGGLVQAGVSLRLSCAASGSTFVSNAMGWYRQAPGKERELVAAISWSGVRTYYADSVKGRITISRDNAKNTVYLQMNSLKPEDTAVYYCSKRIYGSRSSRFNYWGQGTQLTVSS	high polyreactivity
QVQLVESGGGLVQAGVSLRLSCAASGSTFYWYAMGWYRQAPGKERELVAAITYSSGRTYYADSEKGRFTISRDNAKNTVYLQMNSLKPEDTAVYYCGWSALNGYDYWGQGTQVTVSS	high polyreactivity
QVQLVESGGGLVQAGVSLRLSCAASGTIFYTYTMGWYRQAPRKERELVATIRSTGSTDYADSVKGRFTISRDNAMNTVYLQMNSLKREDTAVYYCNADRFGDYDYWGQGTQVTVSS	low polyreactivity
QVQLVESGGGLVQAGVSLRLSCAAYGFTFTGYAMGWYRQAPGKEMEFVAAITTGGGSTYYADSVKGRFTISRDNAKNTVYFQMNSLKPEDTAVYYCAKSRQYIGGFDYWGQGTQVTVSS	high polyreactivity
QVQLVESGGGLVQAGVSLRLSCASTGLTFRYYAMGWYRQAPGKERELVAAISSGTGTYYADSVKGRFTISRDNAKNTVYLQMNSLKPEDTAVYYCAAVFFRARVIRGYNYWGQGTQVTVSS	high polyreactivity
QVQLVESGGGLVQAGVSLRLSCVASGLTQPYAMGWYRQAPGKESELVAGISWRGASTYYADSVKGRFTISRDNAKNTVYLQMNSLKPEDTAVSYCAARSTIQRRGYYGYRVGRSEYGYWGQGTQVTVSS	low polyreactivity
QVQLVESGGGLVQARGILRLSCAASGSTFYTYTAMGWYRQAPGKERELVAAITWRGGSTYYADSVKGRFTIARDNAKNTVYLQMNSLKPQDSAVSSCAATLNRYGYDYWGQGTQVTVSS	high polyreactivity
QVQLVESGGGLVQARGSLRLICAASGRTFEHNSMGWYRQAPGKERELVARITSGGRTYYADSVKGRFTISRDNAKNTVYLQMNSLKPEDTAVYYCATVGRGYDERHNYWGQGTQVTVSS	high polyreactivity
QVQLVESGGGLVQARGSLRLICAASGSTFWYYAKGWYRQAPGKERELVAAITSGDSTYYADSVKGRFTISRDNAKNTVYLQMNSLKPEDTAVYYCAADLPWEDGYYYYSGYTEYDYWGQGTQVTVSS	low polyreactivity
QVQLVESGGGLVQARGSLRLSCAASGFIFPSYAMGWYRQAPGKERELDAAITWNGGSTYYADSVKGRFTISRDNAKNTVYLQMNSLKPEDTAVYYCNKYYYYRDYGYWVQGTQVTVSS	high polyreactivity
QVQLVESGGGLVQARGSLRLSCAASGGIFYRNAMGWYRQAPGKERELVAAITQSGGRTYYADSVKGRFTISRDNAKNTVYLQMNSLKPEDTADYYCAKSRYTPTGSLQLNYWGQGTQVTVSS	high polyreactivity
QVQLVESGGGLVQARGSLRLSCAASGITFRYYAMGWYRQAPGKERELVASISWSGGSTYYADSVKGRFTISRDNAKNTVYLQMNSLKPEDTAVYYCAADILTFWYRYYYWGQGTQVTVSS	high polyreactivity
QVQLVESGGGLVQARGSLRLSCAASGLTFITNTMGWYRQAPGKERELVAVISYSGTSTYYADSVKGRFTISRDYAKNTVYLQMNSLKPEDTAVYYWDASYLGSYRYSYYYWGQGTQVTVSS	high polyreactivity
QVQLVESGGGLVQARGSLRLSCAASGLTFRWYSMGWYRQAPGKERELVAAISSGGRTYYADSVKGRFTISRDNAKNTVYLQMNSLKPEDTAVYYCSKRTLDYGFGSYGREYWGEGTQVTVSS	high polyreactivity
QVQLVESGGGLVQARGSLRLSCAASGRIFPVNTMGWYRQAPGKERELVAAITSGGGTYYADSVKGRFTISRDNAKNTVYFQMNSLKPEDTAVYYWTAPEGRKPYDSWGQGTQVTVSS	low polyreactivity
QVQLVESGGGLVQARGSLRLSCAASGRIFSKYAMGWYRQAPGKERELVAAISSSGVSTYYADSVKGRFTISRDNAKNTVYLQMNSLKPEDTAVYYCYKRTSPKRFDYWGQGTQVTVSS	high polyreactivity
QVQLVESGGGLVQARGSLRLSCAASGRIFTTYAMGWYRQAPGKESELVAAISQTGGSTYYADSVKGRFTISRDNAKNTVYLKMNSLKPEDTAVYYCNAGPAGYYDDDYWGQGTQVTVSS	low polyreactivity
QVQLVESGGGLVQARGSLRLSCAASGRILKRYAMGWYRQAPGKERELVAAISYGGGSTDYADSVKGRFTISRDNAKNTVYLQMNSLKPEDTAVYYCAAKVRYYLSLRGSTTRRDDYYWGQGTQVTVSS	low polyreactivity
QVQLVESGGGLVQARGSLRLSCAASGSIFGSYAMGWYRQAPGKDSELVADISCGGSTNYADSVKGRFTISRDNAKNTVYLQMNSLKPDDTAVYYCNADDPAGYLYLWGSWLESDYWGQGTQVTVSS	low polyreactivity
QVQLVESGGGLVQARGSLRLSCAASGSTFAYNAMGWYRKAPGKERELVADITSTGTSTYADSVKGRFTISRDNAKNTVYLQMNSLKPEDTAVYYCNADYDSTYVGYDYWGQGTQVTVSS	low polyreactivity

Sequence	polyreactivity (PSR sort gate)
QVQLVESGGGLVQARGSLRLSCAASGSTFDSNAMGCYRQAPGKERELVAAITRGGSTNYADSVKGRFTISRDNAKNTVYLQMNSLNPEDTAVYYCAAASETLGSATYGSGYDYWGQGTQVTVSS	low polyreactivity
QVQLVESGGGLVQARGSLRLSCAASGSTFGRYAMGSYRQAPGIERELVAAISLGTTTNYADSVKGRFTISRDNAKNTVYLQMNSLKPEDTAVSYCAADQPSKRYYYWGQGTQVTVSS	low polyreactivity
QVQLVESGGGLVQARGSLRLSCAASGSTFIPNTMGWSRQAPGKERELVAAISRRGGSKNYADSVKGRFTISRDNAKNTVYLQMNSLNPEDTAVYYCAAASPRRYRYDYWGQGTQVTVSS	high polyreactivity
QVQLVESGGGLVQARGSLRLSCAASGSTFSVYAMGWYRQAPGKERELVAAITDVDNTYYADSVKGRFTISRDNAKNTVYLQRNSLKPEDTAVYYCDARYYQYYEYYHWGQGTQVTVSS	low polyreactivity
QVQLVESGGGLVQARGSLRLSCAASGSTFYPYAMGWYRQAPGKERELVAAISSGGSTSYADSVKGRFTISRDNAKNTVYLQMNSLKPEDTAVYYCNASSPGAVPVYDYDYWGQGTQVTVSS	low polyreactivity
QVQLVESGGGLVQARGSLRLSCAAYRITFGWYAMGWYRQAHAKERELVASISSSGSTNYADSVKGRFTISRDNAKNTVYLQMNSLKPEDTAVYYCNKDYRRRHYYIYVIEGDYWGQGTQVTVSS	low polyreactivity
QVQLVESGGGLVQARGSLRLSCPASGITFARYAMEWSRQAPGKERELVAAISYGGGSTYYADSVKGRFTISRDNAKNTVYLQMNSLKPEDTSVYYCNNVPRKSYGYWGQGTQVTVSS	high polyreactivity
QVQLVESGGGLVQARGSLRLSCPASGSIFSLNAMGWYRQAPGKERELVASISRGGSTNYADSVKGRFTISRDNAKNTVYLQMNSLKPEDTAVYYCAAYWYYYTKSQSSYRFDYWGQGTQVTVSS	low polyreactivity
QVQLVESGGGLVQARGSLRLSSAASGYIFYHYAMGWYRQSPGKERELVAAISSGGGSTYYADSVKGRFTISRDYAKNTVSLQINSLKPEDTAVYYCNAVRYYTKYDYWGQGTQVTVSS	high polyreactivity
QVQLVESGGGLVQARGSLRLTCAASGSTFSENAMGWYRQAPGKERELVAAISRGGGRTYYADSVKGRFTISRDNAKNTVYLQMNSLKPEDTAVYYCNAGLPAGNHGYDYWGQGTQVTVSS	high polyreactivity
QVQLVESGGGLVQARVSLRLICAASAIIIYDNAIGWYRQAPGKESEFVATINYSGDSTYYADSVKGRFTISRDNANNTVYLQMNSLKPEDTAVYYCATDGAWQYYWVYSHVYWGQGTQVTVSS	low polyreactivity
QVQLVESGGGLVQAVGSHRLSCAASGFIFTSYAMGWYRQAPGKERELVAAITRSGGRTYYADSVKGRFTISRDNAKNTVYLQMNSLKPEDTAVYYCAAVTFYQSPARGYWGQGTQVTVSS	high polyreactivity
QVQLVESGGGLVQAVGSLRLSCAASGFIFVGYAMGWYRQAPGKERELVAAITGGGTTYYADSVKGRFTISRDNAKNSVYLQMNSLKPEETAVYYCAKDRPRKDTQRWRYGHWGQGTQVTVSS	high polyreactivity
QVQLVESGGGLVQAVGSLRLSCAASGFILGGYALGWYRQAPGKERELVAAISFSTVATYYADSVKGRFTNSRDNAKNTVYLQMNSLKPEDTAVYYCAARRLGYYRKVKELDYWGQGTQVTVST	high polyreactivity
QVQLVESGGGLVQAVGSLRLSCAASGHIFCYYTMGRYRQAPGKERELVAGITIGGSTNYADSVKGRFTISRDNAKNTVYLQMNSLKPEDTAVYYCNVVKYVYIYSYWEYYYWGQGTQVTVSS	low polyreactivity
QVQLVESGGGLVQAVGSLRLSCAASGIIFDSYAMGWYRQAPGKERELVAAITSRGGRTYYADSVKGRFTISRDNAKNTVYLQMNSLKPEDTAVYYCAADDGWIEPVYGYYEHEYWGQGTQVTVSS	low polyreactivity
QVQLVESGGGLVQAVGSLRLSCAASGRIFDTYVMGWYRQAPGKEREMVAAISGSGGSTYYADSVKGRFTISRDNAKNTVYLQMNSLKPEDTAVYYCSAARRYYAYRYDYWGQGTQVTVSS	high polyreactivity
QVQLVESGGGLVQAVGSLRLSCAASGRIFYSYAMGWYRQAPGKERELVAAITRGGSTSYADSVKGRFTISRDNAKNTVYLQMNSLKPDDTAVYYCATRQFYSYWKYYYWGQGTQVTVSS	high polyreactivity
QVQLVESGGGLVQAVGSLRLSCAASGRTFSEYAMGWYRQAPGKERELVAAITGTGGSTYYADSVKGRFTISRDNAKNTVYLQMNSLKPEDTAVYFCAAEYYRYYFLSVSTDDYWGQGTQVTVSS	high polyreactivity
QVQLVESGGGLVQAVGSLRLSCAASGSIFRRNVMGWYRPAPGKERELVATLTVGGSTYYADSVKGRFTISRDNAKNTVYLQMNSLIPEDTAVYYCAAYSPYLRSWYDYWGQGTQGTVSS	high polyreactivity
